This data set relates to T1, OxyR (Reut_A2805) (Cupriavidus pinatubonensis), ORF:7651349a.
T1 sequence: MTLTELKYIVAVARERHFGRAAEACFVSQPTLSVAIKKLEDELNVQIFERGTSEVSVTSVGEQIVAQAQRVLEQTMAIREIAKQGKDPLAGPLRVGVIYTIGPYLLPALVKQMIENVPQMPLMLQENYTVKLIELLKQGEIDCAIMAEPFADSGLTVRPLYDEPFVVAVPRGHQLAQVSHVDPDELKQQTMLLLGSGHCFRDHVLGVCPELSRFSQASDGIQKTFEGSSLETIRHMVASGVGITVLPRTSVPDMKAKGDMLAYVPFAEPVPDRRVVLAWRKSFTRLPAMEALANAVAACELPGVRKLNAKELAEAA
Briefly: EMSA. The settings on record: EMSA: 20 mM Tris pH 7.4, 4 mM MgCl2, 100 mM NaCl, 10% glycerol; 20 min at room temperature; 6% native PAGE with 5% glycerol in 0.5x TBE.

“AAATGCATCGCTCTCAGAATACCCAAAAATGAGCAATTCGATGCCATCGACTTTCGCGTTTCTGGCAACTTTGCGCGAACTGTAGAAAATACCGGATTACAGGTATTGTCCTGTCCAAGTCGCACAGCGTAAATTTCGCCTGACTTCCGTTGCGCAACCAACAGAAACACAAAGATT (double strand) [PT6SS1]”: the binding result is given as “binds”.

These data come from publication PMC10846153.
